± gives the standard deviation of the averaged measurements.
Experiments:
Saccharomyces cerevisiae [1] = experiment: protein stability index of tFT-peptide fusion (C-terminal peptide) (PSI (0-1 scale)); higher = more stable (slower turnover); conditions: genetic background: wild type; temperature: 30 C
Saccharomyces cerevisiae [2] = experiment: as above
Experimental: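 MPS profiling in S. cerevisiae of the tFT-X12 degron library: putative degron peptides plus stable controls, 12 aa, fused to the C-terminus of a sfGFP-mCherry timer. Cells are FACS-sorted into 8 mCherry/sfGFP bins and deep-sequenced. PSI runs from 0 (unstable) to 1 (stable). Backgrounds are wild type, das1Δ and doa10Δ at 30 °C, and wild type, das1Δ, cdc34-1 and cdc53-1 at 37 °C; 2-3 technical replicates each.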

[3] = genetic background: cdc34-1, temperature: 37 C
[4] = genetic background: cdc53-1, temperature: 37 C
[5] = genetic background: das1 deletion, temperature: 30 C
[6] = genetic background: das1 deletion, temperature: 37 C
[7] = genetic background: doa10 deletion, temperature: 30 C
[8] = genetic background: wild type, temperature: 30 C
[9] = genetic background: wild type, temperature: 37 C
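Note: PSI is a weighted mean of sequencing reads over stability bins, variants kept only with over 10 reads, mCherry proximal and sfGFP distal, peptide attached via GGGS linker.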

Row | Sequence | protein stability index (Saccharomyces cerevisiae [1]) | protein stability index (Saccharomyces cerevisiae [2]; [3]) | protein stability index (Saccharomyces cerevisiae [2]; [4]) | protein stability index (Saccharomyces cerevisiae [2]; [5]) | protein stability index (Saccharomyces cerevisiae [2]; [6]) | protein stability index (Saccharomyces cerevisiae [2]; [7]) | protein stability index (Saccharomyces cerevisiae [2]; [8]) | protein stability index (Saccharomyces cerevisiae [2]; [9])
1 | DHSIYYGVAKVF | 0.163 ± 0.055 | 0.484 ± 0.017 | 0.652 ± 0.012 | 0.5745 ± 0.0018 | 0.694 ± 0.018 | 0.0729 ± 0.022 | 0.0841 ± 0.024 | 0.09554 ± 0.00036
2 | DKKNCIIIYYKQ | 0.147 ± 0.062 | 0.479 ± 0.053 | 0.706 ± 0.074 | 0.653 ± 0.021 | 0.6973 ± 0.0046 | 0.0802 ± 0.03 | 0.0804 ± 0.024 | 0.106 ± 0.011
3 | DLDLLTKFSKEC | 0.466 ± 0.03 | 0.702 ± 0.028 | 0.77 ± 0.013 | 0.628 ± 0.043 | 0.743 ± 0.028 | 0.4783 ± 0.0024 | 0.503 ± 0.025 | 0.656 ± 0.018
4 | DRHCLVSLSPDG | 0.5 ± 0.1 | 0.64 ± 0.03 | 0.665 ± 0.03 | 0.618 ± 0.015 | 0.686 ± 0.029 | 0.623 ± 0.016 | 0.6079 ± 0.0033 | 0.678 ± 0.033
5 | DRLAVLVLLRVY | 0.109 ± 0.017 | 0.0219 ± 0.0022 | 0.0458 ± 0.013 | 0.137 ± 0.041 | 0.182 ± 0.0035 | 0.0574 ± 0.01 | 0.0636 ± 0.018 | 0.0571 ± 0.016
6 | DRRFLVMISVSL | 0.398 ± 0.039 | 0.33 ± 0.01 | 0.357 ± 0.016 | 0.272 ± 0.045 | 0.458 ± 0.008 | 0.251 ± 0.0083 | 0.262 ± 0.028 | 0.414 ± 0.0086
7 | DRSPLPAIFVAQ | 0.681 ± 0.047 | 0.7 ± 0.028 | 0.746 ± 0.021 | 0.674 ± 0.013 | 0.7428 ± 0.0073 | 0.665 ± 0.013 | 0.643 ± 0.012 | 0.733 ± 0.016
8 | DTAFLLVVVVGR | 0.373 ± 0.042 | 0.309 ± 0.0076 | 0.358 ± 0.036 | 0.257 ± 0.028 | 0.446 ± 0.017 | 0.213 ± 0.0084 | 0.232 ± 0.032 | 0.411 ± 0.029
9 | DYIFVYAVMFMR | 0.265 ± 0.045 | 0.14 ± 0.046 | 0.292 ± 0.046 | 0.152 ± 0.026 | 0.319 ± 0.02 | 0.116 ± 0.0035 | 0.118 ± 0.031 | 0.308 ± 0.02
10 | EFCITAFVSVLT | 0.435 ± 0.012 | 0.452 ± 0.029 | 0.431 ± 0.017 | 0.324 ± 0.033 | 0.483 ± 0.017 | 0.287 ± 0.011 | 0.329 ± 0.025 | 0.462 ± 0.0064
11 | EGLRVSVCAWVM | 0.339 ± 0.023 | 0.38 ± 0.043 | 0.467 ± 0.0075 | 0.313 ± 0.03 | 0.4385 ± 0.0017 | 0.253 ± 0.019 | 0.277 ± 0.013 | 0.421 ± 0.0079
12 | EHIRWLLPKHCL | 0.454 ± 0.041 | 0.681 ± 0.027 | 0.73 ± 0.026 | 0.647 ± 0.03 | 0.725 ± 0.03 | 0.2907 ± 0.0018 | 0.314 ± 0.017 | 0.613 ± 0.063
13 | EIKTEIGKKKKN | 0.503 ± 0.0079 | 0.632 ± 0.2 | 0.671 ± 0.022 | 0.723 ± 0.05 | 0.658 ± 0.045 | 0.541 ± 0.0061 | 0.61 ± 0.028 | 0.608 ± 0.067
14 | EINRKKRKTKIN | 0.436 ± 0.04 | 0.704 ± 0.047 | 0.7155 ± 0.0039 | 0.67 ± 0.047 | 0.771 ± 0.011 | 0.312 ± 0.023 | 0.373 ± 0.018 | 0.465 ± 0.044
15 | ERGSLPRIHHLI | 0.257 ± 0.0082 | 0.6542 ± 0.0035 | 0.754 ± 0.017 | 0.688 ± 0.085 | 0.736 ± 0.011 | 0.127 ± 0.012 | 0.168 ± 0.034 | 0.31 ± 0.02
16 | ERLVFKRWYLCL | 0.123 ± 0.018 | 0.585 ± 0.028 | 0.605 ± 0.062 | 0.571 ± 0.033 | 0.7056 ± 0.0052 | 0.0726 ± 0.026 | 0.0951 ± 0.039 | 0.136 ± 0.0091
17 | ESCVRSRRVLLC | 0.221 ± 0.026 | 0.564 ± 0.063 | 0.71 ± 0.032 | 0.621 ± 0.013 | 0.73 ± 0.027 | 0.129 ± 0.044 | 0.127 ± 0.017 | 0.196 ± 0.0075
18 | EVPVIGVLRSLL | 0.743 ± 0.043 | 0.9376 ± 0.009 | 0.918 ± 0.014 | 0.804 ± 0.018 | 0.8784 ± 0.0044 | 0.773 ± 0.027 | 0.78 ± 0.023 | 0.847 ± 0.017
19 | EVSIISECKVAS | 0.258 ± 0.011 | 0.5081 ± 0.0025 | 0.639 ± 0.059 | 0.44 ± 0.019 | 0.585 ± 0.026 | 0.145 ± 0.013 | 0.175 ± 0.014 | 0.281 ± 0.015
20 | FALAYFFVLKSF | 0.172 ± 0.0026 | 0.228 ± 0.019 | 0.246 ± 0.057 | 0.243 ± 0.045 | 0.423 ± 0.0084 | 0.0908 ± 0.011 | 0.0862 ± 0.02 | 0.1132 ± 0.001

Row | Sequence | protein stability index (Saccharomyces cerevisiae [1]) | protein stability index (Saccharomyces cerevisiae [2]; [3]) | protein stability index (Saccharomyces cerevisiae [2]; [4]) | protein stability index (Saccharomyces cerevisiae [2]; [5]) | protein stability index (Saccharomyces cerevisiae [2]; [6]) | protein stability index (Saccharomyces cerevisiae [2]; [7]) | protein stability index (Saccharomyces cerevisiae [2]; [8]) | protein stability index (Saccharomyces cerevisiae [2]; [9])
21 | FARYLRSMYILF | 0.409 ± 0.029 | 0.546 ± 0.026 | 0.54989 ± 0.0003 | 0.5426 ± 0.0032 | 0.6721 ± 0.0049 | 0.369 ± 0.014 | 0.343 ± 0.019 | 0.462 ± 0.0051
22 | FAVLWFLYWCSW | 0.348 ± 0.063 | 0.347 ± 0.0065 | 0.376 ± 0.019 | 0.282 ± 0.026 | 0.422 ± 0.013 | 0.245 ± 0.025 | 0.261 ± 0.044 | 0.387 ± 0.0054
23 | FCCSFFLCVCFV | 0.392 ± 0.0044 | 0.349 ± 0.036 | 0.371 ± 0.0043 | 0.309 ± 0.019 | 0.409 ± 0.007 | 0.29 ± 0.017 | 0.276 ± 0.034 | 0.348 ± 0.013
24 | FCLSPILLLRFL | 0.213 ± 0.034 | 0.268 ± 0.004 | 0.261 ± 0.012 | 0.355 ± 0.024 | 0.439 ± 0.0047 | 0.219 ± 0.022 | 0.174 ± 0.024 | 0.225 ± 0.012
25 | FCRPCCLIVFVV | 0.184 ± 0.037 | 0.236 ± 0.026 | 0.295 ± 0.029 | 0.253 ± 0.036 | 0.467 ± 0.0059 | 0.122 ± 0.0099 | 0.128 ± 0.019 | 0.126 ± 0.019
26 | FFCRARHRLYVA | 0.233 ± 0.023 | 0.537 ± 0.044 | 0.626 ± 0.059 | 0.626 ± 0.012 | 0.675 ± 0.0094 | 0.0986 ± 0.0092 | 0.105 ± 0.0095 | 0.152 ± 0.061
27 | FFFFLFRSIFLS | 0.152 ± 0.0068 | 0.146 ± 0.12 | 0.124 ± 0.013 | 0.293 ± 0.05 | 0.394 ± 0.094 | 0.179 ± 0.0022 | 0.118 ± 0.012 | 0.138 ± 0.011
28 | FFFFSMLIFCAV | 0.191 ± 0.0034 | 0.06041 ± 0.00022 | 0.106 ± 0.025 | 0.156 ± 0.016 | 0.226 ± 0.013 | 0.129 ± 0.01 | 0.136 ± 0.0094 | 0.192 ± 0.0081
29 | FFFLLPRLFRCV | 0.45 ± 0.017 | 0.791 ± 0.053 | 0.835 ± 0.012 | 0.707 ± 0.03 | 0.773 ± 0.011 | 0.445 ± 0.018 | 0.449 ± 0.012 | 0.5611 ± 0.0017
30 | FFLFCWFVPRFS | 0.435 ± 0.018 | 0.454 ± 0.0056 | 0.512 ± 0.0079 | 0.379 ± 0.027 | 0.553 ± 0.012 | 0.349 ± 0.014 | 0.351 ± 0.027 | 0.498 ± 0.016
31 | FFLLCFMMCVLL | 0.259 ± 0.053 | 0.291 ± 0.015 | 0.291 ± 0.014 | 0.289 ± 0.043 | 0.374 ± 0.025 | 0.288 ± 0.01 | 0.219 ± 0.032 | 0.348 ± 0.01
32 | FFLPIFFSIFLS | 0.156 ± 0.013 | 0.068 ± 0.038 | 0.0346 ± 0.0085 | 0.152 ± 0.017 | 0.198 ± 0.0023 | 0.281 ± 0.0056 | 0.108 ± 0.022 | 0.155 ± 0.0049
33 | FFLSAFFFFFLF | 0.361 ± 0.0086 | 0.342 ± 0.04 | 0.346 ± 0.017 | 0.359 ± 0.015 | 0.4409 ± 0.0039 | 0.3669 ± 0.002 | 0.291 ± 0.027 | 0.36913 ± 0.00026
34 | FFMLLYSFFTFD | 0.418 ± 0.014 | 0.434 ± 0.0044 | 0.50402 ± 2.8e-06 | 0.38 ± 0.033 | 0.51926 ± 0.00029 | 0.348 ± 0.004 | 0.375 ± 0.035 | 0.506 ± 0.024
35 | FFSSSASVLFII | 0.299 ± 0.016 | 0.686 ± 0.11 | 0.7852 ± 0.0067 | 0.663 ± 0.029 | 0.79 ± 0.0075 | 0.19 ± 0.015 | 0.198 ± 0.016 | 0.394 ± 0.039
36 | FFTLLLFLFFSV | 0.321 ± 0.0086 | 0.352 ± 0.035 | 0.278 ± 0.032 | 0.3 ± 0.026 | 0.435 ± 0.039 | 0.395 ± 0.0048 | 0.293 ± 0.03 | 0.411 ± 0.022
37 | FFVACCSFVFLL | 0.335 ± 0.066 | 0.369 ± 0.024 | 0.436 ± 0.03 | 0.35 ± 0.022 | 0.478 ± 0.0052 | 0.197 ± 0.007 | 0.203 ± 0.022 | 0.316 ± 0.019
38 | FGFGSSRFLLCL | 0.471 ± 0.029 | 0.677 ± 0.015 | 0.731 ± 0.0042 | 0.609 ± 0.027 | 0.743 ± 0.0099 | 0.3357 ± 0.0026 | 0.384 ± 0.028 | 0.604 ± 0.026
39 | FGFLVVLFDCVR | 0.436 ± 0.07 | 0.336 ± 0.0095 | 0.437 ± 0.015 | 0.327 ± 0.034 | 0.474 ± 0.017 | 0.2652 ± 0.00067 | 0.291 ± 0.028 | 0.464 ± 0.0057

Source: the supplement of paper PMC10724198
